The results in this text go back to patent publication US20240343781A1 (published 2024).

One experiment deals with SARS-CoV-2 Spike. Put plainly: SPR. In general terms: SPR reads the build-up and loss of mass on a sensor chip optically.
For a further experiment, the target named is GX-Pangolin. Description: ELISA. (ELISA stands for enzyme-linked immunosorbent assay.)
In the next experiment the target is SHC014. Description: ELISA.
A further experiment deals with Rs4081. Put plainly: ELISA.
A further experiment concerns the target Yunnan2011. Put plainly: ELISA.
The next experiment has as its target RmYN02. Put plainly: ELISA.
The target of the next experiment is SARS-CoV. Description: ELISA.
The next experiment deals with BtKY72. Description: ELISA.
The next experiment addresses RaTG13. Description: ELISA.
The next experiment deals with WIV1. Description: ELISA.
The next experiment has as its target BM-4831. Description: ELISA.
A further experiment has as its target Rf1. Put plainly: ELISA.
The target of another experiment is SARS-COV spike trimer (SARS-CoV, UniProt P59594 14-1190). Description: SPR.

B1: 10-40 (antibody, V domains shown)
VH: QLQLQESGPGLVKPSETLSLTCTVSGGSISSSNFYWGWIRQPPGKGLEWIASITYSGRTFYNPSLKSRVAISVDTSKNQFSLKLSSVTAADTAVYYCARTFPSYYDRSGYHYLNYGMDVWGQGTTVTVSS
VL: NFMLTQPHSMSESPGKTVTISCTRSSGSIASNYVQWYQQRPGSSPTTVIYEDNQRPSGVPDRFSGSIDSSSNSASLTISGLKTEDEADYYCQSYDSSSWVFGGGTKLTVL
Regarding B1, the Kd – broadly, the free concentration of one partner at which half of the binding sites on the other are occupied at equilibrium, for simple one-to-one binding – with SARS-CoV-2 Spike was found to be 4.52 pM. The EC50 – broadly, the midpoint of the concentration-response curve – was found to be 4 ng/mL with GX-Pangolin; 5 ng/mL with SHC014; 9 ng/mL with Rs4081; 0.037 µg/mL in the experiment with Yunnan2011; 0.01 µg/mL with RmYN02; 8 ng/mL with SARS-CoV. In addition, the EC50 with BtKY72 turned out to be 4 ng/mL; with RaTG13, 3 ng/mL; in the experiment with WIV1, 4 ng/mL; with BM-4831, 3 ng/mL; with Rf1, 4 ng/mL.

B2: engineered monoclonal antibody 10-40 (antibody, V domains shown)
VH: QLQLQESGPGLVKPSETLSLTCTVSGGSISSSNFYWGWIRQPPGKGLEWIASITYSGRTFYNPSLKSRVAISVDTSKNQFSLKLSSVTAADTAVYYCARTFPSYYDRSGYHYLNYGMDVWGQGTTVTVSS
VL: NFMLTQPHSMSESPGKTVTISCTRSSGSIASNYVQWYQQRPGSSPTTVIYEDNQRPSGVPDRFSGSIDSSSNSASLTISGLKTEDEADYYCQSYDSSSWVFGGGTKLTVL
B2: the Kd with SARS-COV spike trimer was found to be 2.21 pM.

B3: 10-28 (antibody, V domains shown)
VH: QVQLVESGGGVVQPGRSLRLSCAASGFTFSSYDMHWVRQAPGKGLEWVAVISYDGSSKFYAESVKGRFTISRDNSKNTLYLQMNSLRAEETAVYYCVKDGEQLVPLFDYWGQGTLVTVSS
VL: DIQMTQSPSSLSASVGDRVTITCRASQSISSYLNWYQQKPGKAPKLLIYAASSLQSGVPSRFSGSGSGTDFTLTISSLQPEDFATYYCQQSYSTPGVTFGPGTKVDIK
The molecule B3 gave a dissociation constant (Kd) with SARS-CoV-2 Spike of 0.782 pM. In addition, the EC50 stood at 4 ng/mL with GX-Pangolin; 2 ng/mL with SHC014; 7 ng/mL in the experiment with Rs4081; 0.009 µg/mL with Yunnan2011; 0.006 µg/mL with RmYN02; 5 ng/mL with SARS-CoV. Also, the EC50 is 4 ng/mL with BtKY72; 2 ng/mL with RaTG13; 3 ng/mL with WIV1; 2 ng/mL with BM-4831; 4 ng/mL with Rf1.

B4: engineered monoclonal antibody 10-28 (antibody, V domains shown)
VH: QVQLVESGGGVVQPGRSLRLSCAASGFTFSSYDMHWVRQAPGKGLEWVAVISYDGSSKFYAESVKGRFTISRDNSKNTLYLQMNSLRAEETAVYYCVKDGEQLVPLFDYWGQGTLVTVSS
VL: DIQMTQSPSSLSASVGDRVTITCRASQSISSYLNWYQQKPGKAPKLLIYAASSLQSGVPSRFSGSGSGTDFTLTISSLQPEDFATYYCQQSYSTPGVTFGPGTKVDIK
B4: the affinity with SARS-COV spike trimer, expressed as Kd, was 3.69 pM. That is a picomolar value.

B5: 11-11 (antibody, V domains shown)
VH: QVQLQESGPGLVKPSQTLSLTCTVSGGSISSGGYYWSWIRQHPGKGLEWIGYIYYSGSTYYNPSLKSRVTISVDTSKNQFSLKVSSVTAADTAVYYCASSNYYDGSGYNLLESYGMDVWGQGTSVTVSS
VL: QSVLTQPPSVSGAPGQRVTISCTGSSSNIGAGYDVHWYQQLPGTAPKLLIYGNSNRPSGVPDRFSGSRSGTSASLAITGLQAEDEADYYCQSYDSSLSGSWVFGGGTKVTVL
B5: the dissociation constant Kd with SARS-CoV-2 Spike stood at 1540 pM. In addition, the EC50 is above 10000 ng/mL with GX-Pangolin; 6 ng/mL with SHC014; above 10000 ng/mL with Rs4081; above 10 µg/mL in the experiment with Yunnan2011; above 10 µg/mL in the experiment with RmYN02; 19 ng/mL with SARS-CoV. Besides, the EC50 in the experiment with BtKY72 is 7 ng/mL; with RaTG13, above 10000 ng/mL; with WIV1, 6 ng/mL; with BM-4831, 1500 ng/mL; with Rf1, above 10000 ng/mL.

B6: engineered monoclonal antibody 11-11 (antibody, V domains shown)
VH: QVQLQESGPGLVKPSQTLSLTCTVSGGSISSGGYYWSWIRQHPGKGLEWIGYIYYSGSTYYNPSLKSRVTISVDTSKNQFSLKVSSVTAADTAVYYCASSNYYDGSGYNLLESYGMDVWGQGTSVTVSS
VL: QSVLTQPPSVSGAPGQRVTISCTGSSSNIGAGYDVHWYQQLPGTAPKLLIYGNSNRPSGVPDRFSGSRSGTSASLAITGLQAEDEADYYCQSYDSSLSGSWVFGGGTKVTVL
In the case of B6, the Kd in the experiment with SARS-COV spike trimer was found to be 4.51 pM.
